Assay results as given in patent US20260069689A1 (Regeneron, published 2026).
Substitutions are numbered along the chain they refer to.

B1: mAb14313 (antibody, V domains shown)
VH: EVQLVESGGGLVQPGRSLRLSCVASGFTFDDSAMHWVRQPPGKGLEWVSGISWNSGIIGYAESVKGRFIISRDNAKNSLFLHMRGLRPEDTAVYYCARDRLELSYYYYGMDVWGQGTTVTVSS
VL: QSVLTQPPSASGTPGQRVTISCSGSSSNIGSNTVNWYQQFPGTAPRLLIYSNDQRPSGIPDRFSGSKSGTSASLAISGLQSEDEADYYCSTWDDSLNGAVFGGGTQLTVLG
B2: mAb14286 (antibody, V domains shown)
VH: QVQLVQSGAEVKKPGASVKVSCKASGYTFTDYFIHWVRQAPGQGLEWMGWINPTSGGTNYAQKFRGRVTMTRDTSISTAYVELSRLRSDDTALYYCARDLPFYSDTKQFDYWGQGTLVTVSS
VL: QSALTQPASVSGYPGQSITISCTGTSSDVGGYNYVSWYQQHPGKAPKLMIFDVSNRPSGVSNRFSGSKSGNTASLTFSGLQAEDEADYYCSSYTSSSTLVFGGGTKLTVLG
B3: mAb14230 (antibody, V domains shown)
VH: EVQLVESGGGLIQPGRSLRLSCAASGFTFDDYAMHWVRQAPGKGLEWVSGISWNSVSIDYADSVKGRFTISRDNAKNSLYLQMTSLTVEDTALYYCAKAFGYETLTGSDYFAYWGPGTLVTVSS
VL: EIVLTQSPGTLSLSPGERATLSCRASQTVISTYLAWYQQKPGQSPRLLIYGASSRATGIPDRFSGSGSGTDFTLTISRLEPEDFAVYYCQQYGSSPQLTFGGGTKVEIKR
B4: mAb14292 (antibody, V domains shown)
VH: EVQLVESGGGLVQPGGSLRLSCVASGFAFSTYEMNWVRQAPGKGLEWVSYISSSGSTIYYADSVKGRLTISRDNVKNSLYLQMNSLRVEDTAIYYCARDAIRNNDILTDPATFDPWGQGTLVTVSS
VL: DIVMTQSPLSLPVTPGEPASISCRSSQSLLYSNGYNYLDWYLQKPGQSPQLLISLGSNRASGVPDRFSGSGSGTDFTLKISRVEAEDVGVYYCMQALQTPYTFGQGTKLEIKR
B5: mAb14280 (antibody, V domains shown)
VH: QVQLVQSGAEVKKPGASVRVSCKASGYTFTGNYIHWVRQAPGQGLEWMAWINPNSGGKNYAQKFQGRVTLTRDTSVNTAYMELSRLRSDDTAMYYCARDVNYNILTGPGGLWGQGTLVTVSS
VL: QSALTQPPSASGSPGQSVTISCTGTSSDVGGYNFVSWYQQHPGKAPKLMIYEVSKRPSGVPDRFSGSKSGNTASLTVSGLQAEDEADYYCSSYAGSNNFVFGTGTKVTVLG
B6: mAb14257 (antibody, V domains shown)
VH: EVQLVESGGGLVQPGGSLRLSCAASGFTVSRSYMNWVRQAPGKGLEWVSVVFTGGTTKHTDSVKGRFTISRDNSMNTLYLQMNSLRPEDTAVYYCARVAIVETTGAFDIWGQGTMVTVSS
VL: QSVLTQPPSVSGAPGQRVTISCTGTSSNIGADFDVHWYQQFPGTAPKLLIYGHTNRPSGIPDRFSGSKSGTSASLAITGLQAEDEADYYCQSYDSSLSGSVVFGGGTKLTVLG
B7: mAb14234 (antibody, V domains shown)
VH: QVQLVESGGGVVQPGRSLRLSCAASGFTFSSYGIHWVRQAPGKGLEWVAIIWYDGSEKYYADSVKGRFTISRDNSKNTLFLQMNSLEAEDTAVYYCARGPDLLTGYYNYFYYGMDVWGQGTTVTVSS
VL: QSVLTQPPSVSGAPGQRVTISCTGSSSNIGIGYDVHWYQQLPGTVPKLLIYGNTNRPSGVPDRFSGSKSGTSASLAITGLQAEDEADYYCQSYDSSLSSYVFGTGTKVTVLG
B8: mAb14256 (antibody, V domains shown)
VH: QVQLQESGPGLVKPSETLSLTCTVSGGSISSHYWSWIRQPPGKGLEWIGYIYYSGSSNYNPSLKSRVTISVDTSKNQFSLKLNSVTAADTAVYYCARHYDILTGFDWFDPWGQGTLVTVSS
VL: QSVLTQPPSVSGAPGQRVTISCTGSSSNIGTHYDVHWYQQLPGTAPKLLIYGNSNRPSGVPDRFSGSKSGTSASLAITGLQAEDEADYYCQSFDNSLTAPYVFGTGTKVTVLG
B9: mAb14315 (antibody, V domains shown)
VH: QVQLVQSGAEVKKPGSSVKVSCKASGDTFSTYAINWVRQAPGQGLEWMGRFIHIFGTANYAQKFQGRVTITADESTSTAYMELRSLRSEDTAVYYCARDGVDYGDYRPDYWGQGTLVTVSS
VL: EIVLTQSPGTLSLSPGERATLSCRASQSVSSNYLAWYQQKPGQAPRLLIYGASSRATGIPERFSGSGSGTDFTLTISRLEPEDFAVYYCQQYGSSLYTFGQGTKLEIKR
B10: mAb13459 (antibody, V domains shown)
VH: EVQLVESGGGLVQPGRSLRLSCAASGFTFDDYAMHWVRQAPGKGLEWVSGISWNSGSIGYADSVKGRFTISRDNAKNSLYLQMNSLRAEDTALYYCAKDIGITTPYWGQGTLVTVSS
VL: AIQMTQSPSSLSASVGDRVTITCRASQDIRNDLGWYQQKPGKAPKLLIYSASSLQTGVPSRFSGSGSGTDFTLTISSLHPEDFATYYCLQDYNYVWTFGQGTKVEIKR
B11: mAb14247 (antibody, V domains shown)
VH: QITLKESGPTLVKPTQTLTLTCTFSGFSLSTSAVGVGWIRQPPGKALEWLALIYWDDDKRYSPSLKSRLTITKDTSKNQLVLTMTNVDPVDTATYYCAHHTIQLIFDYWGQGTLVTVSS
VL: QSALTQPASVSGSPGQSITISCTATSSDVGNYNYVSWYQQHPGKAPKLMIYEVSNRPSGVSNRFSGSKSGNTASLTISGLQAEDEADYYCSSYTSSSTPLVFGGGTKLTVLG
B12: mAb14232 (antibody, V domains shown)
VH: B11 VH with T31A, A33G, L80V, V87M, H99Q, T101K, I102V, Q103A, L104T
VL: QSALTQPPSASGSPGQSVTISCTATSSDVGNYNYVSWYQQHPGKAPKLMIYEVTKRPSGVPDRFSGSKSGNTASLTVSGLQAEDEADYYCSSYAGSWGVFGGGTKLTVLG
B13: mAb14255 (antibody, V domains shown)
VH: QVQLQESGPGLVKPSETLSLTCTVSGGSISGYYWSWIRQPPGKGLDWIGYIYYRGNTNYNPSLKSRVTISVDTSNNQFSLKLSSVTAADTAVYYCARYGEGYGDASGYHFDYWGQGTLVTVSS
VL: QSALTQPASVSGSPGQSITISCTGTSSDVGSYNLVSWYQQHPGKAPKLMIYEDSKRPSGVANPFSGSKSGNTASLTISGLQAEDEADYYCSSYAGSSTWVFGGGTKLTVLG
B14: mAb14285 (antibody, V domains shown)
VH: QVQLVQSGAEVKKPGASVKVSCKASGYTFTGYFIHWVRQAPGQGLEWMGWISPISGGTNYAQKFQGRVTVTRDTSITTAYMELSRLTSDDTAVYHCAREGGTWKGDFDYWGQGTLVTVSS
VL: B13 VL with G30E, D53G, A61S, P63R
B15: mAb14281 (antibody, V domains shown)
VH: QVQLVQSGADVKKPGASVKVSCKTSGYIFTGYYIHWVRQAPGQGLEWMGWINPNSGGTNSAQKFQGRVTMTRDTSISTVYMELSRLRSDDTAVYYCAKSNSFSVLDYNFDYWGQGTLVTVSS
VL: SSELTQDPAVSVALGQTVRITCQGDSLRSYYASWYQQKPGQAPVLVIYDKNNRPSGIPDRFSGSSSGNTASLTITGAQAEDEADYYCNSRDSSRNHLVVFGGGTKLTVLG
B16: mAb14282 (antibody, V domains shown)
VH: QVQLVQSGAEVKKPGASVKVSCKASGYIFTDHYMHWVRQAPGQGLEWMGWINPNSGATNYAQNFQGRVTMTRDTSIITVYMELSRLRSDDTAVYYCARDSSPYMIRYTMDVWGQGTTITVSS
VL: QSALTQPASVSGSPGQSITISCTGTSSDVGSYNLVSWYQQHPGKAPKLMIYELTKRPSGVSNRFSGSKSGNTASLTISGLQAEDEADYYCSSYRGSVTDVVFGGGTKLTVLG

Tests used:
[1] = target: T1, SARS-CoV2 Spike ecto foldon Trimer expressed with a C-terminal myc-myc-hexahistidine (SARS-CoV-2, UniProt P0DTC2 14-1213); test: SPR Biacore, mAb captured by anti-hFc, 25C
T1 construct: extracellular domain

[2] = target: T1, SARS-CoV2 Spike ecto foldon Trimer …; test: SPR Biacore, mAb captured by anti-hFc, 37C

Binder	Kd [1] [nM]	koff [1] [s⁻¹]	kon [1] [M⁻¹ s⁻¹]	t½ [1] [h]	Kd [2] [nM]	koff [2] [s⁻¹]	kon [2] [M⁻¹ s⁻¹]	t½ [2] [h]
B1	0.0565	0.000113	2e+06	1.7	0.0984	9.94e-05	1.01e+06	1.94
B2	0.0331	8.71e-05	2.63e+06	2.21	0.0544	0.000141	2.59e+06	1.37
B3	0.0404	6.09e-05	1.51e+06	3.16	0.0991	8.97e-05	906000	2.14
B4	7.21	0.00421	584000	0.045	11.5	0.00682	592000	0.0283
B5	0.0136	2.69e-05	1.99e+06	7.14	0.029	2.86e-05	985000	6.73
B6	0.0434	0.000107	2.45e+06	1.81	0.141	0.000165	1.17e+06	1.17
B7	0.0775	5.48e-05	707000	3.51	0.102	7.16e-05	699000	2.69
B8	0.129	0.000189	1.47e+06	1.02	0.304	0.000242	796000	0.795
B9	0.0483	3.15e-05	652000	6.1	0.0437	3.25e-05	743000	5.93
B10	0.0389	5.46e-05	1.41e+06	3.52	0.0599	4.76e-05	794000	4.05
B11	0.0521	4.91e-05	944000	3.92	0.0701	4.72e-05	674000	4.08
B12	0.195	0.000149	763000	1.29	0.177	0.000133	751000	1.45
B13	0.0706	0.000138	1.96e+06	1.39	0.155	0.000161	1.03e+06	1.2
B14	0.017	3.98e-05	2.34e+06	4.84	0.0359	4.18e-05	1.16e+06	4.61
B15	0.097	8.09e-05	834000	2.38	0.139	0.000116	834000	1.66
B16	0.0624	0.000133	2.14e+06	1.44	0.162	0.000171	1.05e+06	1.13
